Biological target: T1, IL-10R2-Fc/His (UniProt Q08334 20-220, limits assumed)
T1 sequence (looked up): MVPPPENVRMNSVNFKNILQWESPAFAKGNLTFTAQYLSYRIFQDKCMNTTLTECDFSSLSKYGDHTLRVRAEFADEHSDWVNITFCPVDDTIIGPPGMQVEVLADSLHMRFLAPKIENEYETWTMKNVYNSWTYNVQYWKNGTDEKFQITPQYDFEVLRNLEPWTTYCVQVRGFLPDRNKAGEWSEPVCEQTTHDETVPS
Assay: ELISA, IL-10R2-Fc/His coated

Row | Decreased fold of binding to ligand after Conjugating with S48 | Binding recovery (>60%) | Binder
1 | 4 fold | – | IL-10 Ile87Cys-S48 (ligand, human, UniProt P22301 19-178, looked up, S48 on Cys 87, mature) SPGQGTQSENSCTHFPGNLPNMLRDLRDAFSRVKTFFQMKDQLDNLLLKESLLEDFKGYLGCQALSEMIQFYLEEVMPQAENQDPDCKAHVNSLGENLKTLRLRLRRCHRFLPCENKSKAVEQVKNAFNKLQEKGIYKAMSEFDIFINYIEAYMTMKIRN
2 | – | 86.4% | IL-10 Asn92Cys-R4-18 (ligand, human, UniProt P22301 19-178, looked up, R4-18 on Cys 92, mature) SPGQGTQSENSCTHFPGNLPNMLRDLRDAFSRVKTFFQMKDQLDNLLLKESLLEDFKGYLGCQALSEMIQFYLEEVMPQAENQDPDIKAHVCSLGENLKTLRLRLRRCHRFLPCENKSKAVEQVKNAFNKLQEKGIYKAMSEFDIFINYIEAYMTMKIRN
3 | – | 81% | IL-10 Asp86Cys-R4-11 (ligand, human, UniProt P22301 19-178, looked up, R4-11 on Cys 86, mature) SPGQGTQSENSCTHFPGNLPNMLRDLRDAFSRVKTFFQMKDQLDNLLLKESLLEDFKGYLGCQALSEMIQFYLEEVMPQAENQDPCIKAHVNSLGENLKTLRLRLRRCHRFLPCENKSKAVEQVKNAFNKLQEKGIYKAMSEFDIFINYIEAYMTMKIRN
4 | 3 fold | – | IL-10 Arg102Cys-S48 (ligand, human, UniProt P22301 19-178, looked up, S48 on Cys 102, mature) SPGQGTQSENSCTHFPGNLPNMLRDLRDAFSRVKTFFQMKDQLDNLLLKESLLEDFKGYLGCQALSEMIQFYLEEVMPQAENQDPDIKAHVNSLGENLKTLCLRLRRCHRFLPCENKSKAVEQVKNAFNKLQEKGIYKAMSEFDIFINYIEAYMTMKIRN
5 | 3 fold | – | IL-10 Leu101Cys-S48 (ligand, human, UniProt P22301 19-178, looked up, S48 on Cys 101, mature) SPGQGTQSENSCTHFPGNLPNMLRDLRDAFSRVKTFFQMKDQLDNLLLKESLLEDFKGYLGCQALSEMIQFYLEEVMPQAENQDPDIKAHVNSLGENLKTCRLRLRRCHRFLPCENKSKAVEQVKNAFNKLQEKGIYKAMSEFDIFINYIEAYMTMKIRN
6 | – | 98% | IL-10 Glu96Cys-R4-12 (ligand, human, UniProt P22301 19-178, looked up, R4-12 on Cys 96, mature) SPGQGTQSENSCTHFPGNLPNMLRDLRDAFSRVKTFFQMKDQLDNLLLKESLLEDFKGYLGCQALSEMIQFYLEEVMPQAENQDPDIKAHVNSLGCNLKTLRLRLRRCHRFLPCENKSKAVEQVKNAFNKLQEKGIYKAMSEFDIFINYIEAYMTMKIRN
7 | 3 fold | – | IL-10 Glu81Cys-S48 (ligand, human, UniProt P22301 19-178, looked up, S48 on Cys 81, mature) SPGQGTQSENSCTHFPGNLPNMLRDLRDAFSRVKTFFQMKDQLDNLLLKESLLEDFKGYLGCQALSEMIQFYLEEVMPQACNQDPDIKAHVNSLGENLKTLRLRLRRCHRFLPCENKSKAVEQVKNAFNKLQEKGIYKAMSEFDIFINYIEAYMTMKIRN
8 | – | 99% | IL-10 Asn126Cys-R4-18 (ligand, human, UniProt P22301 19-178, looked up, R4-18 on Cys 126, mature) SPGQGTQSENSCTHFPGNLPNMLRDLRDAFSRVKTFFQMKDQLDNLLLKESLLEDFKGYLGCQALSEMIQFYLEEVMPQAENQDPDIKAHVNSLGENLKTLRLRLRRCHRFLPCENKSKAVEQVKCAFNKLQEKGIYKAMSEFDIFINYIEAYMTMKIRN
9 | – | 96.5% | IL-10 Gln123Cys-R4-19 (ligand, human, UniProt P22301 19-178, looked up, R4-19 on Cys 123, mature) SPGQGTQSENSCTHFPGNLPNMLRDLRDAFSRVKTFFQMKDQLDNLLLKESLLEDFKGYLGCQALSEMIQFYLEEVMPQAENQDPDIKAHVNSLGENLKTLRLRLRRCHRFLPCENKSKAVECVKNAFNKLQEKGIYKAMSEFDIFINYIEAYMTMKIRN
10 | 3 fold | – | IL-10 Glu122Cys-S48 (ligand, human, UniProt P22301 19-178, looked up, S48 on Cys 122, mature) SPGQGTQSENSCTHFPGNLPNMLRDLRDAFSRVKTFFQMKDQLDNLLLKESLLEDFKGYLGCQALSEMIQFYLEEVMPQAENQDPDIKAHVNSLGENLKTLRLRLRRCHRFLPCENKSKAVCQVKNAFNKLQEKGIYKAMSEFDIFINYIEAYMTMKIRN
11 | 3 fold | – | IL-10 Glu96Cys-S48 (ligand, human, UniProt P22301 19-178, looked up, S48 on Cys 96, mature) SPGQGTQSENSCTHFPGNLPNMLRDLRDAFSRVKTFFQMKDQLDNLLLKESLLEDFKGYLGCQALSEMIQFYLEEVMPQAENQDPDIKAHVNSLGCNLKTLRLRLRRCHRFLPCENKSKAVEQVKNAFNKLQEKGIYKAMSEFDIFINYIEAYMTMKIRN

More lines, now with the values behind:

Row | Binder | Decreased fold of binding to ligand after Conjugating with S48 | Binding recovery (>60%)
12 | IL-10 Ala89Cys-S48 (ligand, human, UniProt P22301 19-178, looked up, S48 on Cys 89, mature) SPGQGTQSENSCTHFPGNLPNMLRDLRDAFSRVKTFFQMKDQLDNLLLKESLLEDFKGYLGCQALSEMIQFYLEEVMPQAENQDPDIKCHVNSLGENLKTLRLRLRRCHRFLPCENKSKAVEQVKNAFNKLQEKGIYKAMSEFDIFINYIEAYMTMKIRN | 5 fold | –
13 | IL-10 Arg106Cys-S48 (ligand, human, UniProt P22301 19-178, looked up, S48 on Cys 106, mature) SPGQGTQSENSCTHFPGNLPNMLRDLRDAFSRVKTFFQMKDQLDNLLLKESLLEDFKGYLGCQALSEMIQFYLEEVMPQAENQDPDIKAHVNSLGENLKTLRLRLCRCHRFLPCENKSKAVEQVKNAFNKLQEKGIYKAMSEFDIFINYIEAYMTMKIRN | 3 fold | –
14 | IL-10 Gln123Cys-S48 (ligand, human, UniProt P22301 19-178, looked up, S48 on Cys 123, mature) SPGQGTQSENSCTHFPGNLPNMLRDLRDAFSRVKTFFQMKDQLDNLLLKESLLEDFKGYLGCQALSEMIQFYLEEVMPQAENQDPDIKAHVNSLGENLKTLRLRLRRCHRFLPCENKSKAVECVKNAFNKLQEKGIYKAMSEFDIFINYIEAYMTMKIRN | 3 fold | –
15 | IL-10 Arg102Cys-R4-20 (ligand, human, UniProt P22301 19-178, looked up, R4-20 on Cys 102, mature) SPGQGTQSENSCTHFPGNLPNMLRDLRDAFSRVKTFFQMKDQLDNLLLKESLLEDFKGYLGCQALSEMIQFYLEEVMPQAENQDPDIKAHVNSLGENLKTLCLRLRRCHRFLPCENKSKAVEQVKNAFNKLQEKGIYKAMSEFDIFINYIEAYMTMKIRN | – | 99%
16 | IL-10 Leu103Cys-S48 (ligand, human, UniProt P22301 19-178, looked up, S48 on Cys 103, mature) SPGQGTQSENSCTHFPGNLPNMLRDLRDAFSRVKTFFQMKDQLDNLLLKESLLEDFKGYLGCQALSEMIQFYLEEVMPQAENQDPDIKAHVNSLGENLKTLRCRLRRCHRFLPCENKSKAVEQVKNAFNKLQEKGIYKAMSEFDIFINYIEAYMTMKIRN | 3 fold | –
17 | IL-10 Ile87Cys-R4-6 (ligand, human, UniProt P22301 19-178, looked up, R4-6 on Cys 87, mature) SPGQGTQSENSCTHFPGNLPNMLRDLRDAFSRVKTFFQMKDQLDNLLLKESLLEDFKGYLGCQALSEMIQFYLEEVMPQAENQDPDCKAHVNSLGENLKTLRLRLRRCHRFLPCENKSKAVEQVKNAFNKLQEKGIYKAMSEFDIFINYIEAYMTMKIRN | – | 95.7%
18 | IL-10 Glu122Cys-R4-12 (ligand, human, UniProt P22301 19-178, looked up, R4-12 on Cys 122, mature) SPGQGTQSENSCTHFPGNLPNMLRDLRDAFSRVKTFFQMKDQLDNLLLKESLLEDFKGYLGCQALSEMIQFYLEEVMPQAENQDPDIKAHVNSLGENLKTLRLRLRRCHRFLPCENKSKAVCQVKNAFNKLQEKGIYKAMSEFDIFINYIEAYMTMKIRN | – | 99.8%
19 | IL-10 Glu81Cys-R4-12 (ligand, human, UniProt P22301 19-178, looked up, R4-12 on Cys 81, mature) SPGQGTQSENSCTHFPGNLPNMLRDLRDAFSRVKTFFQMKDQLDNLLLKESLLEDFKGYLGCQALSEMIQFYLEEVMPQACNQDPDIKAHVNSLGENLKTLRLRLRRCHRFLPCENKSKAVEQVKNAFNKLQEKGIYKAMSEFDIFINYIEAYMTMKIRN | – | 93.6%
20 | IL-10 Asn126Cys-S48 (ligand, human, UniProt P22301 19-178, looked up, S48 on Cys 126, mature) SPGQGTQSENSCTHFPGNLPNMLRDLRDAFSRVKTFFQMKDQLDNLLLKESLLEDFKGYLGCQALSEMIQFYLEEVMPQAENQDPDIKAHVNSLGENLKTLRLRLRRCHRFLPCENKSKAVEQVKCAFNKLQEKGIYKAMSEFDIFINYIEAYMTMKIRN | 3 fold | –
21 | IL-10 Asp86Cys-S48 (ligand, human, UniProt P22301 19-178, looked up, S48 on Cys 86, mature) SPGQGTQSENSCTHFPGNLPNMLRDLRDAFSRVKTFFQMKDQLDNLLLKESLLEDFKGYLGCQALSEMIQFYLEEVMPQAENQDPCIKAHVNSLGENLKTLRLRLRRCHRFLPCENKSKAVEQVKNAFNKLQEKGIYKAMSEFDIFINYIEAYMTMKIRN | 3 fold | –
22 | IL-10 Asp25Cys-R4-11 (ligand, human, UniProt P22301 19-178, looked up, R4-11 on Cys 25, mature) SPGQGTQSENSCTHFPGNLPNMLRCLRDAFSRVKTFFQMKDQLDNLLLKESLLEDFKGYLGCQALSEMIQFYLEEVMPQAENQDPDIKAHVNSLGENLKTLRLRLRRCHRFLPCENKSKAVEQVKNAFNKLQEKGIYKAMSEFDIFINYIEAYMTMKIRN | – | 91.5%
23 | IL-10 Leu101Cys-R4-6 (ligand, human, UniProt P22301 19-178, looked up, R4-6 on Cys 101, mature) SPGQGTQSENSCTHFPGNLPNMLRDLRDAFSRVKTFFQMKDQLDNLLLKESLLEDFKGYLGCQALSEMIQFYLEEVMPQAENQDPDIKAHVNSLGENLKTCRLRLRRCHRFLPCENKSKAVEQVKNAFNKLQEKGIYKAMSEFDIFINYIEAYMTMKIRN | – | 91%
24 | IL-10 Arg106Cys-R4-7 (ligand, human, UniProt P22301 19-178, looked up, R4-7 on Cys 106, mature) SPGQGTQSENSCTHFPGNLPNMLRDLRDAFSRVKTFFQMKDQLDNLLLKESLLEDFKGYLGCQALSEMIQFYLEEVMPQAENQDPDIKAHVNSLGENLKTLRLRLCRCHRFLPCENKSKAVEQVKNAFNKLQEKGIYKAMSEFDIFINYIEAYMTMKIRN | – | 99.6%
25 | IL-10 Leu103Cys-R4-6 (ligand, human, UniProt P22301 19-178, looked up, R4-6 on Cys 103, mature) SPGQGTQSENSCTHFPGNLPNMLRDLRDAFSRVKTFFQMKDQLDNLLLKESLLEDFKGYLGCQALSEMIQFYLEEVMPQAENQDPDIKAHVNSLGENLKTLRCRLRRCHRFLPCENKSKAVEQVKNAFNKLQEKGIYKAMSEFDIFINYIEAYMTMKIRN | – | 89.4%
26 | IL-10 Asn92Cys-S48 (ligand, human, UniProt P22301 19-178, looked up, S48 on Cys 92, mature) SPGQGTQSENSCTHFPGNLPNMLRDLRDAFSRVKTFFQMKDQLDNLLLKESLLEDFKGYLGCQALSEMIQFYLEEVMPQAENQDPDIKAHVCSLGENLKTLRLRLRRCHRFLPCENKSKAVEQVKNAFNKLQEKGIYKAMSEFDIFINYIEAYMTMKIRN | 3 fold | –
